Results: patent US20060026702A1, “Phosphoinositide 3-kinase mediated inhibition of GPCRs” (DUKE UNIVERSITY, priority 2002, published 2006)

Key:
PI3K = test: βAR associated and endogenous PI3K activity (lipid kinase assay) in HEK-293 cells; conditions: HEAT (4 μg cDNA) co-transfected; 10 μM isoproterenol
AT1AR-GFP = target: T1, AT1AR-GFP (Rattus norvegicus, UniProt P25095); test: Endocytosis of AT1AR-GFP in live cells by confocal microscopy; format: cell-based; conditions: Angiotensin II 10 μM, 20 min; HEAT co-expressed
T1 construct: expressed in transfected cells; host or cells: HEK 293
T1 sequence (P25095 1-359): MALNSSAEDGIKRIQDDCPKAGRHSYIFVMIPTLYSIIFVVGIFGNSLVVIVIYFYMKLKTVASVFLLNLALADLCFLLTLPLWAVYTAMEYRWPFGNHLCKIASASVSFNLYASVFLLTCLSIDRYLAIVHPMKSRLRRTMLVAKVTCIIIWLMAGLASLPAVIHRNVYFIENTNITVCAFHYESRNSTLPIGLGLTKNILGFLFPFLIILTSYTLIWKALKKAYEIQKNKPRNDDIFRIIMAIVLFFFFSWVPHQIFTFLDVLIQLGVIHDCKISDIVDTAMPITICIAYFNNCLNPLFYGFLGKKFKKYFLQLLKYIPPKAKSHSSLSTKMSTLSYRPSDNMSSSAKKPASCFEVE
Protocol: Disruption of the endogenous βARK1/PI3K interaction by the HEAT protein attenuated AT1AR endocytosis. Endocytosis of AT1AR-GFP in live cells was monitored for 20 min following angiotensin (10 μM) stimulation in the absence or presence of HEAT protein co-expression using confocal microscopy. HEK 293 cells were transfected with 2 μg Angiotensin II Type 1 Receptor, or with 2 pg Angiotensin II Type 1 Receptor and 2 μg HEAT, and stimulated for 20 minutes with 10 μM Angiotensin II. AT1AR internalization was followed in the same cell after agonist stimulation. Prior to agonist, the distribution of AT1AR-GFP was found distinctly at the plasma membrane (FIG. 15, 0 min). […] With time, this was followed by the formation of cytoplasmic aggregates, and then with the complete loss of membrane fluorescence (FIG. 15, 5-20 min). […] In FIG. 15, panels on the left represent cells transfected with the AT1AR-GFP alone (panels show the same cell monitored at 0, 5, 10, 15, and 20 min following stimulation). Panels on the right represent cell transfected with AT1AR-GFP and HEAT (panels show the same cell monitored as above). In the absence of HEAT, agonist caused the internalization AT1ARs as shown by the formation of distinct cytoplasmic aggregates and complete loss of membrane fluorescence.

β2AR complex = test: Recruitment of AP-2 adaptin and clathrin to the agonist-stimulated β2AR complex (immunoprecipitation, immunoblot); format: cell-based; conditions: HEAT co-transfected
Protocol: Immunoblotting and Detection—Immunoblotting and detection of PI3K, βARK1, HA-PI3Kγ, HA-ΔPI3Kγ, Myc-PI3Kα, FLAG-HEAT, PI3KΔHEAT-HA, FLAG-β2AR, HA-β2AR, β-adaptin and clathrin was carried out as previously described. Immunoprecipitating antibodies were added to 500 μg of cell lysate in lysis buffer followed by the addition of 35 μl of 1:1 Protein A- or G-agarose. Samples were rocked overnight at 4° C. then centrifuged at 12,000×g for 5 min. Immunoprecipitates were washed twice with lysis buffer, twice with 1×PBS and resuspended in 1×SDS-gel loading buffer. Proteins were resolved by SDS-polyacrylamide gel electrophoresis and blotted on to PVDF membrane (Bio-Rad). Blots were incubated with antibodies recognizing PI3K, Myc (Santa-Cruz), β-adaptin, clathrin heavy chain (BD Transduction Laboratories), HA (Roche Molecular Biochemicals) and FLAG (Sigma) at 1:2000 dilution and the βARK1 monoclonal antibody at 1:10,000 dilution. Blots were subsequently incubated with appropriate secondary antibody (1:2000 dilution) conjugated to horseradish peroxidase (Amersham Pharmacia Biotech) and detection was carried out using enhanced chemiluminescence. […]
The present inventors determined that βARK1-mediated localization of PI3K within the activated receptor complex is responsible for the generation of D-3 phosphatidylinositols necessary for the efficient recruitment of adaptin to the P2AR complex. […]

β2AR-YFP = target: T2, β2AR-YFP (Homo sapiens, UniProt P07550); test: Endocytosis of β2AR-YFP in live cells by confocal microscopy; format: cell-based; conditions: 10 μM isoproterenol, 10 min; HEAT co-expressed
T2 construct: expressed in transfected cells; host or cells: HEK 293
Protocol: Confocal Microscopy—Confocal microscopy was performed as previously described. […] Cells were split into 35 mm^2 dishes with glass bottoms for observation using a Zeiss LSM-510 confocal microscope. […] For analyses of the HEAT domain, HEK 293 cells were transfected with the plasmids containing cDNAs encoding either the β2AR-YFP (2 μg) or β2AR-YFP (2 μg) and HEAT domain (4 μg). Cells were plated onto glass bottom dishes for observation in the confocal microscope. […] Cells were permeablized with 0.1% Triton X-100 in phosphate-buffered saline for 20 min, incubated in 1% BSA in phosphate-buffered saline for 1 hr. Cells were washed with 1× phosphate-buffered saline and incubated with anti-HA or anti-FLAG monoclonal antibody (1:250) with 1% BSA in 1× phosphate-buffered saline for 1 hr. Cells were washed and incubated with goat anti-mouse IgG conjugated with Texas Red (1:500) (Molecular Probes) for 1 hr. Samples were visualized using single sequential line excitation filters at 488 and 568 nm and emission filter sets at 505-550 nm for GFP detection and 585 for Texas Red detection.
Prior to agonist, the distribution of β2AR-YFP was found distinctly at the plasma membrane (FIG. 11B, panel 1). […] With time, this was followed by the formation of cytoplasmic aggregates (FIG. 11B, panel 3), and then with the complete loss of membrane fluorescence (FIG. 11B, panels 3 and 7) (arrowheads).

B1: HEAT: 197 amino acid HEAT domain of PI3Kγ, FLAG epitope-tagged (SEQ ID NO: 2), overexpressed in cells (protein, listed as Homo sapiens)
chain: MDYKDDDDKHPIALPKHQPTPDDRVRAEMPNQLRKQLEAIIATDTAEDKELLWHFRYESLKHPKAYPKLFSSVKWGQQEIVAKTYQLLARREVWDQSALDVGLTMQLLDCNFSDENVRAIAVQKLESLEDDDVLHYLLQLVQAVKFEPYHDSALARFLLKRGLRNKRIGHFLFWFLRSEIAQSRHYQQRFAVILEAYLRGCGTA
modifications: FLAG tag
- FLAG-β2AR associated PI3K activity (PI3K): marked decrease
- receptor endocytosis (redistribution of AT1AR-GFP) (AT1AR-GFP): completely inhibited
- recruitment of adaptin to the agonist-stimulated β2AR complex (β2AR complex; 10 μM isoproterenol 0-10 min): completely abolished
- clathrin co-immunoprecipitated with the receptor after agonist (β2AR complex): attenuated
- receptor endocytosis (redistribution of β2AR-YFP) (β2AR-YFP): completely inhibited
